B1: TRIM43 (parent)
chain: YQEIFQQLQRSWVKMDQKSKHLKE

Variants of: B1
Assay: protein stability index of a GFP-peptide fusion (GPS, HEK-293T) (PSI 1-6); higher = more stable
Conditions: c terminus: a fixed tail appended
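Note: lentivirally expressed fusions sorted by FACS into six bins by GFP to DsRed ratio, PSI derived from sequencing read proportions per bin multiplied by bin number.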

Protein stability index, by site and new letter:
S19: P 2.3, W 2.56, V 2.12, Y 3, D 2.68, F 1.95, T 2.86, R 1.98, K 1.77, Q 2.14, H 1.83, E 2.29, G 1.86, M 2.44, C 1.99, N 2.35, A 3.09, I 3.05, L 3.31
D16: W 2.96, G 1.76, P 2.12, K 2.35, F 3.17, N 3.48, R 2.2, E 2.13, Q 2.52, I 2.51, L 3.47, T 2.09, A 3.13, H 2.73, V 1.69
L22: G 2.6, I 2.21, A 2.22, S 3.29, E 3.27, Y 1.92, V 2.39, P 2.94, C 2.6, W 1.65, N 2.53, T 2.62, M 2.13, H 2.35, F 1.91, K 2.45, R 2.75, D 3.28, Q 2.91
E24: A 1.89, C 2.13
M15: R 2.5, N 2.59, D 2.54, F 1.99, Q 2.3, I 1.62, G 2.35, P 3.15, K 2.61, L 2, V 2.13, S 2.46, H 2.29, Y 2.05, W 1.48, T 2.53, E 2.87
K18: E 2.46, S 2, C 1.94, L 2.31, V 1.69, F 1.44, T 2.71, Q 2.4, M 1.64, W 1.77, R 2.57, Y 1.86, I 1.37, A 2.4, D 2.87, H 2.04, G 2.4, P 2.1, N 2.34
K23: F 1.47, I 3.31, A 2.92, G 2.54, C 1.74, E 2.6, W 2.33, V 1.92, R 1.22, Y 1.58, T 2.14, H 1.79, M 2.33, L 1.66, Q 2.11, P 2.08, S 2.15, N 2.03, D 2.41
H21: C 2.65, P 1.64, D 2.56, G 2.33, M 2.5, S 2.37, E 2.68, I 2.09, T 2.28, Y 2.27, N 2.59, L 1.91, F 1.94, R 2.53, K 2.04, Q 2.28, V 1.79, A 2.23, W 1.53
Q17: Y 1.72, K 2.1, V 2.17, C 2.05, N 2.89, A 2.1, G 1.96, S 2.29, F 2.68, L 1.92, M 1.73, E 1.98, I 1.73, W 1.72, R 2.19, D 2.01, T 2.62, P 2.21, H 2.12
K20: A 2.74, P 2.48, G 2.31, I 1.95, V 1.94, R 1.59, Q 2.36, D 2, H 2.19, M 2.24, C 1.76, E 2.85, F 2.56, L 1.82, T 1.86, N 2.44, S 1.85, Y 1.68, W 2.42

Reference: the supplement of paper PMC10567573
